Changes are numbered by the printed parent chain.

Consider two molecules from article PMC6325134 (Nature Communications, 2019).

This experiment concerns the target T1, HIV-1 envelope glycoprotein Env_(JR-CSF) on intact virions (HIV-1 group M subtype B, isolate JR-CSF, UniProt P20871).
T1 construct: also called JR-CSF Env-WT; JR-CSF virions; source: 293T cells transfected with the Env(-) pCHIV plasmid and the full-length JR-CSF Env clone; on pseudovirions purified by ultracentrifugation through a 20% sucrose cushion
The experiment can be described thus: STED microscopy of fluorescent Fab on single virions. The settings on record: one partner purified.

B1: Fab 10E8 3R conjugated with KK114 (Fab, V domains shown)
VH: EVQLVESGGGLVKPGGSLRLSCSASGFDFDNAWMTWVRQPPGKGLEWVGRITGPGEGWSVDYAAPVEGRFTISRLNSINFLYLEMNNLRMEDSGLYFCARTGKYYDFWSGYPPGEEYFQDWGRGTLVTVSS
VL: SYELTQETGVSVALGRTVTITCRGDSLRRHYASWYQKKPGQAPILLFYGKRNRPSGVPDRFSGSARGNRASLTISGAQAEDDAEYYCSSRDKSGSRLSVFGGGTKLTVL
notes: also called 3R mutant
With B1, the binding result is given as “binds”.

B2: Fab 10E8 3R-WG conjugated with KK114 (Fab, V domains shown)
VH: B1 VH with W108G
VL: B1 VL
notes: also called 3R/WG mutant
As to B2, the binding result was “binds”.
